According to paper PMC7372559 (ACS Chemical Biology, 2020):
Residue numbers refer to the chain shown, from its start. Numbers in names are those of the source.

B1: OphMA wild type, full-length, His8-tagged (enzyme, Omphalotus olearius, UniProt A0A2R2JFI5 1-417, looked up)
chain: METSTQTKAGSLTIVGTGIESIGQMTLQALSYIEAAAKVFYCVIDPATEAFILTKNKNCVDLYQYYDNGKSRLNTYTQMSELMVREVRKGLDVVGVFYGHPGVFVNPSHRALAIAKSEGYRARMLPGVSAEDCLFADLCIDPSNPGCLTYEASDFLIRDRPVSIHSHLVLFQVGCVGIADFNFTGFDNNKFGVLVDRLEQEYGAEHPVVHYIAAMMPHQDPVTDKYTVAQLREPEIAKRVGGVSTFYIPPKARKASNLDIIRRLELLPAGQVPDKKARIYPANQWEPDVPEVEPYRPSDQAAIAQLADHAPPEQYQPLATSKAMSDVMTKLALDPKALADYKADHRAFAQSVPDLTPQERAALELGDSWAIRCAMKNMPSSLLDAARESGEEASQNGFPWVIVVGVIGVIGSVMSTE
modifications: backbone N-methylation: most abundant species with complete methylation of the core peptide (9-fold) and an additional methylation at Val413
B2: OphMA V403E, full-length, His-tagged (enzyme)
chain: B1 chain with V403E
modifications: backbone N-methylation: peptides with 1 methylation
B3: OphMA V406R, full-length, His-tagged (enzyme)
chain: B1 chain with V406R
modifications: backbone N-methylation: dominant species unmethylated, next most abundant with two methylations
B4: OphMA I407R, full-length, His-tagged (enzyme)
chain: B1 chain with I407R
modifications: backbone N-methylation: dominant species carried three methylations
B5: OphMA I407E, full-length, His-tagged (enzyme)
chain: B1 chain with I407E
modifications: backbone N-methylation: peptides with 5 methylations
B6: OphMA V403R, full-length, His-tagged (enzyme)
chain: B1 chain with V403R
modifications: backbone N-methylation: dominant species unmethylated, next most abundant with two methylations
B7: OphMA V404E, full-length, His-tagged (in vivo methylation series) (enzyme)
chain: B1 chain with V404E
modifications: backbone N-methylation: peptides with 2 methylations
B8: OphMA V403P, full-length, His-tagged (enzyme)
chain: B1 chain with V403P
modifications: backbone N-methylation: dominant species unmethylated, evidence for two methylations
B9: OphMA I407P, full-length, His-tagged (in vivo methylation series) (enzyme)
chain: B1 chain with I407P
modifications: backbone N-methylation: a variety of species (two to four methylations), evidence of up to six
B10: OphMA V404T, full-length, His-tagged (enzyme)
chain: B1 chain with V404T
modifications: backbone N-methylation: 10-fold methylated species most abundant
B11: OphMA V406E, full-length, His-tagged (enzyme)
chain: B1 chain with V406E
modifications: backbone N-methylation: mixture of similarly abundant peptides containing 4, 5, or 6 methylations
B12: OphMA V403T, full-length, His-tagged (enzyme)
chain: B1 chain with V403T
modifications: backbone N-methylation: 10-fold methylated species most abundant
B13: OphMA V406F, full-length, His-tagged (enzyme)
chain: B1 chain with V406F
modifications: backbone N-methylation: a tetramethylated species and, to a lesser extent, a trimethylated species
B14: OphMA V403F, full-length, His-tagged (enzyme)
chain: B1 chain with V403F
modifications: backbone N-methylation: comparably abundant monomethylated, dimethylated, trimethylated and tetramethylated species
B15: OphMA I407F, full-length, His-tagged (enzyme)
chain: B1 chain with I407F
modifications: backbone N-methylation: mainly a tetramethylated species with some pentamethylated species
B16: OphMA V404R, full-length, His-tagged (enzyme)
chain: B1 chain with V404R
modifications: backbone N-methylation: dominant species unmethylated, next most abundant with two methylations
B17: OphMA V406T, full-length, His-tagged (enzyme)
chain: B1 chain with V406T
modifications: backbone N-methylation: 3-fold methylated species most abundant
B18: OphMA V406P, full-length, His-tagged (in vivo methylation series) (enzyme)
chain: B1 chain with V406P
modifications: backbone N-methylation: dominant species unmethylated, evidence for two and four methylations
B19: OphMA V404F, full-length, His-tagged (enzyme)
chain: B1 chain with V404F
modifications: backbone N-methylation: mainly monomethylated
B20: OphMA I407T, full-length, His-tagged (enzyme)
chain: B1 chain with I407T
modifications: backbone N-methylation: 9-fold methylated species most abundant
B21: OphMAΔC6-V404F (crystallised with SAH) (enzyme)
chain: METSTQTKAGSLTIVGTGIESIGQMTLQALSYIEAAAKVFYCVIDPATEAFILTKNKNCVDLYQYYDNGKSRLNTYTQMSELMVREVRKGLDVVGVFYGHPGVFVNPSHRALAIAKSEGYRARMLPGVSAEDCLFADLCIDPSNPGCLTYEASDFLIRDRPVSIHSHLVLFQVGCVGIADFNFTGFDNNKFGVLVDRLEQEYGAEHPVVHYIAAMMPHQDPVTDKYTVAQLREPEIAKRVGGVSTFYIPPKARKASNLDIIRRLELLPAGQVPDKKARIYPANQWEPDVPEVEPYRPSDQAAIAQLADHAPPEQYQPLATSKAMSDVMTKLALDPKALADYKADHRAFAQSVPDLTPQERAALELGDSWAIRCAMKNMPSSLLDAARESGEEASQNGFPWVIVFGVIGVIG
modifications: backbone N-methyl at Val401 and Val403 (in the crystal structure)

Target: the molecule itself
Experiment: SEC; Superdex-200 Increase column, 25 mM Tris-HCl (pH 8.0), 10% (v/v) glycerol, 100 mM NaCl; retention time of mutants compared with wild type
For B1, the “stoichiometry N” value was 2. In the case of B2, the “stoichiometry N” value is reported as 2. For B3, the “stoichiometry N” value was 2. With B4 the “stoichiometry N” value was 2. In the case of B5, the “stoichiometry N” value is reported as 2. With B6 the “stoichiometry N” value was 2. For B7, the “stoichiometry N” value was 2. With B8 the “stoichiometry N” value was 2. In the case of B9, the “stoichiometry N” value is reported as 2. For B10, the “stoichiometry N” value was 2. In the case of B11, the “stoichiometry N” value is reported as 2. B12 was tested, and the “stoichiometry N” value was 2. In the case of B13, the “stoichiometry N” value is reported as 2. B14 was tested, and the “stoichiometry N” value was 2. In the case of B15, the “stoichiometry N” value is reported as 2. B16 was tested, and the “stoichiometry N” value was 2. With B17 the “stoichiometry N” value was 2. With B18 the “stoichiometry N” value was 2. With B19 the “stoichiometry N” value was 2. For B20, the “stoichiometry N” value was 2.

Target: the molecule itself
Experiment: crystal structure; hanging drop, 16 °C; protein (30-50 mg/mL) preincubated with 3 mM SAM; 0.3-0.4 M KSCN, 1.8-2.4 M sodium malonate, 0.1 M bicine pH 8.5-9.3; SAH bound
B21: binds.
